± gives the uncertainty stated by the source.
Experiment: self-splicing fitness, log relative to wild type (ln ratio); higher = more splicing; Tetrahymena group I intron in knt gene, E. coli kanamycin selection, DiMSum; sequences stand for … in CUCUCU…GGAGGGAAAAGUUAUCAGGCAUGCACCUGGUAGCUAGUCUUUAAACCAAUAGAUUGCAUCGGUUUAAAAGGCAAGACCGUCAAAUUGCGGGAAAGGGGUCAACAGCCGUUCAGUACCAAGUCUCAGGGGAAACUUUGAGAUGGCCUUGCAAAGGGUAUGGUAAUAAGCUGACGGACAUGGUCCUAACCACGCAGCCAAGUCCUAAGUCAACAGAUCUUCUGUUGAUAUGGAUGCAGUUCACAGACUAAAUGUCGGUCGGGGAAGAUGUAUUCUUCUCAUAAGAUAUAGUCGGACCUCUCCUUAAUGGGAGCUAGCGGAUGAAGUGAUGCAACACUGGAGCCGCUGGGAACUAAUUUGUAUGCGAAAGUAUAUUGAUUAGUUUUGGAGUACUCGUGGUCG
Procedure, shortened: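 The eight P1ex-region nucleotides of an intron in the knt kanamycin-resistance gene on pET-22b(+) were all randomised and the library put into E. coli BL21(DE3). Six replicate transformations were grown overnight at 37°C or 30°C on LB agar with or without 25 μg/mL kanamycin, together with 100 μg/mL carbenicillin, 50 μM IPTG and 0.2% rhamnose. Colonies were pooled and amplicon-sequenced on an Illumina HiSeq 2500. Fitness from DiMSum is the error-weighted combination of wild-type-normalised replicate fold changes, kanamycin over none.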

| Sequence | self-splicing fitness (ln) (30 °C) | self-splicing fitness (ln) (37 °C) |
| --- | --- | --- |
| AACUAGCAAUAUUACGUGUU | -2.68 ± 0.11 | -2.45 ± 0.16 |
| AACUAGCAAUAUUACGUUUG | -3.27 ± 0.15 | -1.72 ± 0.14 |
| AAGAAGCAAUAUUACGAAAU | -1.98 ± 0.17 | -2.03 ± 0.19 |
| AAGAAGCAAUAUUACGACAC | -0.918 ± 0.12 | -0.625 ± 0.14 |
| AAGAAGCAAUAUUACGACCA | -0.349 ± 0.1 | -0.795 ± 0.2 |
| AAGAAGCAAUAUUACGAGAU | -3.43 ± 0.18 | -1.56 ± 0.14 |
| AAGAAGCAAUAUUACGAGCG | -0.646 ± 0.14 | -0.754 ± 0.2 |
| AAGAAGCAAUAUUACGCACC | -1.11 ± 0.12 | -0.644 ± 0.15 |
| AAGAAGCAAUAUUACGCAGU | -2.66 ± 0.18 | -2.08 ± 0.15 |
| AAGAAGCAAUAUUACGCAUU | -2.89 ± 0.21 | -1.52 ± 0.21 |
| AAGAAGCAAUAUUACGCCCU | 0.319 ± 0.11 | 0.0852 ± 0.12 |
| AAGAAGCAAUAUUACGCCUC | -1.82 ± 0.26 | -1.85 ± 0.27 |
| AAGAAGCAAUAUUACGCUAA | -1.69 ± 0.14 | -0.682 ± 0.15 |
| AAGAAGCAAUAUUACGCUGC | -2.58 ± 0.32 | -1.75 ± 0.35 |
| AAGAAGCAAUAUUACGGACC | -1.28 ± 0.13 | -0.312 ± 0.18 |
| AAGAAGCAAUAUUACGGAGG | -3.92 ± 0.29 | -2.96 ± 0.32 |
| AAGAAGCAAUAUUACGGAGU | -3.02 ± 0.15 | -2.86 ± 0.17 |
| AAGAAGCAAUAUUACGGCCU | -0.278 ± 0.11 | -0.574 ± 0.14 |
| AAGAAGCAAUAUUACGGCUC | -1.19 ± 0.12 | -0.0707 ± 0.15 |
| AAGAAGCAAUAUUACGGCUG | -0.496 ± 0.077 | -0.25 ± 0.12 |
| AAGAAGCAAUAUUACGGUAA | -2.01 ± 0.19 | -0.929 ± 0.16 |
| AAGAAGCAAUAUUACGGUCC | -1.1 ± 0.14 | 0.249 ± 0.16 |
| AAGAAGCAAUAUUACGGUGG | -2.93 ± 0.13 | -1.98 ± 0.13 |
| AAGAAGCAAUAUUACGUACC | -0.392 ± 0.14 | 0.219 ± 0.19 |
| AAGAAGCAAUAUUACGUACU | 0.124 ± 0.082 | 0.141 ± 0.099 |
| AAGAAGCAAUAUUACGUAGG | -2.09 ± 0.082 | -1.14 ± 0.12 |

| Sequence | self-splicing fitness (ln) (30 °C) | self-splicing fitness (ln) (37 °C) |
| --- | --- | --- |
| AAGAAGCAAUAUUACGUCAA | -1.78 ± 0.11 | -0.843 ± 0.088 |
| AAGAAGCAAUAUUACGUGGC | -4.15 ± 0.22 | -2.99 ± 0.2 |
| AAGCAGCAAUAUUACGAAAG | -3.93 ± 0.23 | -2.29 ± 0.17 |
| AAGCAGCAAUAUUACGACAG | -3.04 ± 0.13 | -1.54 ± 0.12 |
| AAGCAGCAAUAUUACGACGU | -0.298 ± 0.067 | 0.18 ± 0.077 |
| AAGCAGCAAUAUUACGAUCA | -1.28 ± 0.091 | -0.405 ± 0.11 |
| AAGCAGCAAUAUUACGCCUG | -2.41 ± 0.13 | -1.58 ± 0.14 |
| AAGCAGCAAUAUUACGCGAC | -0.688 ± 0.22 | -1.95 ± 0.25 |
| AAGCAGCAAUAUUACGCGCU | -2.53 ± 0.11 | -1.73 ± 0.11 |
| AAGCAGCAAUAUUACGCGGA | -2.59 ± 0.13 | -1.46 ± 0.11 |
| AAGCAGCAAUAUUACGCGUA | -1.57 ± 0.11 | -0.515 ± 0.1 |
| AAGCAGCAAUAUUACGGCGC | -0.59 ± 0.2 | -1.02 ± 0.19 |
| AAGCAGCAAUAUUACGGGAC | -4.44 ± 0.46 | -3.38 ± 0.39 |
| AAGCAGCAAUAUUACGGGUA | -1.91 ± 0.15 | -2.31 ± 0.16 |
| AAGCAGCAAUAUUACGGGUU | -2.1 ± 0.094 | -1.61 ± 0.12 |
| AAGCAGCAAUAUUACGGUCG | -1.34 ± 0.061 | -0.879 ± 0.093 |
| AAGCAGCAAUAUUACGUCAA | -1.1 ± 0.091 | -1.36 ± 0.096 |
| AAGCAGCAAUAUUACGUGCU | -3.6 ± 0.15 | -1.85 ± 0.11 |
| AAGCAGCAAUAUUACGUUAG | -3.74 ± 0.18 | -2.52 ± 0.15 |
| AAGGAGCAAUAUUACGAAAA | -2.9 ± 0.39 | -1.84 ± 0.35 |
| AAGGAGCAAUAUUACGAAUC |  | -1.46 ± 0.36 |
| AAGGAGCAAUAUUACGACGG |  | -0.954 ± 0.16 |
| AAGGAGCAAUAUUACGAGAG | -1.62 ± 0.17 | -2.58 ± 0.34 |
| AAGGAGCAAUAUUACGAGUA | -3.6 ± 0.43 | -3.21 ± 0.4 |
| AAGGAGCAAUAUUACGCACU | -1.53 ± 0.17 | -0.454 ± 0.18 |
| AAGGAGCAAUAUUACGCCCC | -1.19 ± 0.47 | -1.42 ± 0.46 |

| Sequence | self-splicing fitness (ln) (30 °C) | self-splicing fitness (ln) (37 °C) |
| --- | --- | --- |
| AAGGAGCAAUAUUACGCGGU | -3.56 ± 0.26 | -1.37 ± 0.26 |
| AAGGAGCAAUAUUACGCGUG | -4.9 ± 0.45 | -2.1 ± 0.18 |
| AAGGAGCAAUAUUACGCUGA | -3.54 ± 0.23 | -1.44 ± 0.15 |
| AAGGAGCAAUAUUACGGAAU | -3.44 ± 0.25 | -2.71 ± 0.26 |
| AAGGAGCAAUAUUACGGAGG | -2.97 ± 0.22 | -1.59 ± 0.23 |
| AAGGAGCAAUAUUACGGCGA | -2.84 ± 0.32 | -0.936 ± 0.3 |
| AAGGAGCAAUAUUACGGGGG | -2.94 ± 0.19 | -0.0467 ± 0.21 |
| AAGGAGCAAUAUUACGUAGG | -3.12 ± 0.22 | -2.02 ± 0.44 |
| AAGGAGCAAUAUUACGUUCC | -3.48 ± 0.32 | -2.98 ± 0.35 |
| AAGUAGCAAUAUUACGAAAA | -2.83 ± 0.28 | -2.14 ± 0.26 |
| AAGUAGCAAUAUUACGAAGA | -2.57 ± 0.34 | -2.06 ± 0.34 |
| AAGUAGCAAUAUUACGAAGG | -2.75 ± 0.24 | -3.26 ± 0.47 |
| AAGUAGCAAUAUUACGACGG | -1.74 ± 0.29 | -1.66 ± 0.34 |
| AAGUAGCAAUAUUACGAGAC | -2.6 ± 0.33 |  |
| AAGUAGCAAUAUUACGAGGA | -2.04 ± 0.32 | -2.12 ± 0.34 |
| AAGUAGCAAUAUUACGCAGC | -3.59 ± 0.34 | -2.3 ± 0.24 |
| AAGUAGCAAUAUUACGCAGG | -3.61 ± 0.27 | -1.87 ± 0.15 |
| AAGUAGCAAUAUUACGCCAC | -3.93 ± 0.36 | -2.49 ± 0.42 |
| AAGUAGCAAUAUUACGCCAU | -2.41 ± 0.23 | -0.903 ± 0.26 |
| AAGUAGCAAUAUUACGCCCG | -1.26 ± 0.23 | -0.559 ± 0.22 |
| AAGUAGCAAUAUUACGCCGA | -1.53 ± 0.16 | -1.39 ± 0.17 |
| AAGUAGCAAUAUUACGCGAG | -1.74 ± 0.11 | -0.889 ± 0.13 |
| AAGUAGCAAUAUUACGCGCG | -0.335 ± 0.087 | -0.184 ± 0.12 |
| AAGUAGCAAUAUUACGCGUU | -2.09 ± 0.18 | -0.705 ± 0.17 |
| AAGUAGCAAUAUUACGCUGG | -2 ± 0.12 | -0.92 ± 0.12 |

— the supplement of paper PMC7877785
